Experimental data from patent publication US20250313644A1 (FUTUREGEN BIOPHARMACEUTICAL BEIJING, published 2025).

T1: LT-α (UniProt P01374 35-205)
T1 sequence (looked up): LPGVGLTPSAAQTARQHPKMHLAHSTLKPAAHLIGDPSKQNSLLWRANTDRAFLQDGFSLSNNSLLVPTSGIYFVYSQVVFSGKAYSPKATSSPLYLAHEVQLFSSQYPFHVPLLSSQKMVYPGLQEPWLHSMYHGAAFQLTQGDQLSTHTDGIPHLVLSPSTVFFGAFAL

T2: HuTL1A mutant R103A (mutant number 4057) (human, UniProt O95150 57-251, limits assumed)
T2 construct: whole entry named
T2 chain: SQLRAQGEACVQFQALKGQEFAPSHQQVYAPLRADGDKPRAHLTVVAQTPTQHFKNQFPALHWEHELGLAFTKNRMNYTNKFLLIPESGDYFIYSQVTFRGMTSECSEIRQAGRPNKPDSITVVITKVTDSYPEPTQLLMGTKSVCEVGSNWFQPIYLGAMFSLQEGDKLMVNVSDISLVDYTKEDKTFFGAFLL

T3: HuTL1A mutant G124R (mutant number 4059) (human, UniProt O95150 57-251, limits assumed)
T3 construct: whole entry named
T3 chain: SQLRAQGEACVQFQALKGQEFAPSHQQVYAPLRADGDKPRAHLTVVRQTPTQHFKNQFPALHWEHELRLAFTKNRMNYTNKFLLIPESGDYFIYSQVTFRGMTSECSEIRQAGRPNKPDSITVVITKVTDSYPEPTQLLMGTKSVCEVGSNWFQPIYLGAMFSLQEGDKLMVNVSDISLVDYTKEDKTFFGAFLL

T4: FASL (UniProt P48023 134-281, limits assumed)
T4 sequence (looked up): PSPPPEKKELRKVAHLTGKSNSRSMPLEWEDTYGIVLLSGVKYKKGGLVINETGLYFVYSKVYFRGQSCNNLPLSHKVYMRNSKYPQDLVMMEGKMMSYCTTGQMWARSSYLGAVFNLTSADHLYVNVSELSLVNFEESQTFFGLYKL

T5: human TL1A (HuTL1A) (human, UniProt O95150 57-251, limits assumed, biotin-labelled in some assays (site not stated))
T5 construct: Expressed in EXPI-293 cells and purified by Ni-NTA (His-tag); Described as a trimeric antigen; also called TL1A antigen; WT
T5 sequence: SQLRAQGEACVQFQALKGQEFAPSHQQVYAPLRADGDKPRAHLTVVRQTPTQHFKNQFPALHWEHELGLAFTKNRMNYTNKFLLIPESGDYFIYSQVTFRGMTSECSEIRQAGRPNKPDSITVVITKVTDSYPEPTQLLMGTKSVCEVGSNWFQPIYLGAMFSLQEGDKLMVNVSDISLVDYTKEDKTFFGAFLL


Key:
LT-α [1] = biological target: T1, LT-α; experiment: ELISA, coated LT-α
Description: (§1) In this experiment, ELISA was used to assess the binding ability of monoclonal antibodies to TL1A homologous molecules. Representative members of the TNF ligand superfamily, TNFα, LT-α, LIGHT and FASL, were selected for binding testing. 1 μg/mL of TNFα, LT-α, LIGHT or FASL was coated in a microplate with a carbonate buffer solution at pH=9.6, 100 μL per well, and the microplate was incubated at 4° C. overnight. The microplate was then washed 5 times with PBST, blocked with 300 μL/well of PBS containing 1% BSA, and was incubated at room temperature for 1 hour. After washing 5 times with PBST, about 100 μL each of the M701 monoclonal antibodies and the control antibodies were added to each well, and were incubated at room temperature for 1 hour. After washing 5 times with PBST, 100 μL of HRP-anti-human Fc (Sino Biological) was added to each well, and was incubated at room temperature for 1 hour. After washing 5 times with PBST, 100 μL of colorimetric substrate TMB was added to each well, and color was developed at room temperature for 10 minutes, followed by addition of 1M sulfuric acid to terminate the reaction. OD450 nm was recorded on a microplate reader.

TNFα [2] = biological target: T6, TNFα (UniProt P01375 77-233); experiment: ELISA, coated TNFα
Description: as §1

[3] = biological target: T2, HuTL1A mutant R103A (mutant number 4057); experiment: ELISA on antigen mutant
[4] = biological target: T3, HuTL1A mutant G124R (mutant number 4059); experiment: ELISA on antigen mutant
FASL [5] = biological target: T4, FASL; experiment: ELISA, coated FASL, Ab 25 nM
Description: as §1

FASL [6] = biological target: T4, FASL; experiment: ELISA, coated FASL, Ab 100 nM
Description: as §1

LT-α [7] = biological target: T1, LT-α; experiment: ELISA, coated LT-α, Ab 100 nM
Description: as §1

LIGHT [8] = biological target: T7, LIGHT (UniProt O43557 74-240, limits assumed); experiment: ELISA, coated LIGHT, Ab 100 nM
Description: as §1

LT-α [9] = biological target: T1, LT-α; experiment: ELISA, coated LT-α, Ab 6.25 nM
Description: as §1

TNFα [10] = biological target: T6, TNFα; experiment: ELISA, coated TNF-α, Ab 100 nM
Description: as §1

LIGHT [11] = biological target: T7, LIGHT; experiment: ELISA, coated LIGHT, Ab 6.25 nM
Description: as §1

LT-α [12] = biological target: T1, LT-α; experiment: ELISA, coated LT-α, Ab 1.563 nM
Description: as §1

LIGHT [13] = biological target: T7, LIGHT; experiment: ELISA, coated LIGHT, Ab 0.391 nM
Description: as §1

TNFα [14] = biological target: T6, TNFα; experiment: ELISA, coated TNF-α, Ab 0.391 nM
Description: as §1

LT-α [15] = biological target: T1, LT-α; experiment: ELISA, coated LT-α, Ab 0.000 nM (blank)
Description: as §1

LIGHT [16] = biological target: T7, LIGHT; experiment: ELISA, coated LIGHT, Ab 0.000 nM (blank)
Description: as §1

human TL1A (HuTL1A) = biological target: T5, human TL1A (HuTL1A); experiment: DLS, antigen and antibody mixed in equal moles
Description: 60 μM antigen and antibody was mixed in equal moles, incubated at room temperature for 30 minutes, and then the molecular size was detected using UNCLE or SEC.

T6 sequence (P01375 77-233 limits assumed): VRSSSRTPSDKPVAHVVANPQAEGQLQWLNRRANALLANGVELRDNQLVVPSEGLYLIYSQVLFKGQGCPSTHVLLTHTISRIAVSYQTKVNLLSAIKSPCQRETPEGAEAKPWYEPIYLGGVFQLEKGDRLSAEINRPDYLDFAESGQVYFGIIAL
T7 sequence (O43557 74-240 limits assumed): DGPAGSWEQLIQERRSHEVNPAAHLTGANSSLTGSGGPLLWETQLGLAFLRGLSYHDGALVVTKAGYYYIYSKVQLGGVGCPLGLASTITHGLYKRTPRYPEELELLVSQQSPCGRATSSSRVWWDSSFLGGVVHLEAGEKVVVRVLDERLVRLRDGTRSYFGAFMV

Binder	binding result (LT-α [1])	binding result (TNFα [2])	binding result [3]	binding result [4]	OD450 nm (FASL [5])	OD450 nm (FASL [6])	OD450 nm (LT-α [7])	OD450 nm (LIGHT [8])	OD450 nm (LT-α [9])	OD450 nm (TNFα [10])	OD450 nm (LIGHT [11])	OD450 nm (LT-α [12])	OD450 nm (LIGHT [13])	OD450 nm (TNFα [14])	OD450 nm (LT-α [15])	OD450 nm (LIGHT [16])	Ave Z-dia (nm) of the antigen-antibody complex (human TL1A (HuTL1A)) [nm]
M701-3966 (antibody, human IgG1, kappa, L234A L235A, V domains shown, Fc-engineered IgG1) VH: ELQLQESGPGLVKPSETLSLTCAVSGVSFSDYHWAWIRQPPGKGLEWIGDINHRGHTNYNPSLKSRVTVSIDTSKNQFSLKLSSVTAADTAVYFCARDFPNFIFDYWGQGTLVTVSS VL: DIQLTQSPGTLSLSPGERATLSCRASQSVSSYLAWYQQKPGQAPRLLIYGASKRATGIPDRFSGSGSGTDFTLTISRLEPEDFAVYYCQQYGDSPLTFGQGTKVEIKR	no binding (tested: 100 nM)	no binding (tested: 100 nM)	no binding	no binding	0.0662	0.0914	0.0709	0.0876	0.06	0.0787	0.0568	0.0651	0.0558	0.0517	0.0704	0.06	18.6
M701-4007 (antibody, human IgG1, kappa, L234A L235A, V domains shown, Fc-engineered IgG1) VH: ELQLQESGPGLVKPSETLSLTCAVSGVSFSDYHWAWIRQPPGKGLEWIGDINHRGHTNYNPSLKSRVTVSIDTSKNQFSLKLSSVTAADTAVYFCARDFPNFIFDFWGQGTLVTVSS VL: DIQLTQSPGTLSLSPGERATLSCRASQSVSTYLAWYQQKPGQAPRLLIYGASKRATGIPDRFSGSGSGTDFTLTISRLEPEDFAVYYCQQYGDSPLTFGQGTKVEIKR	no binding (tested: 100 nM)	no binding (tested: 100 nM)	no binding	no binding	0.0634	0.089	0.0706	0.0853	0.0588	0.079	0.0542	0.0625	0.0534	0.0557	0.0662	0.0568	18.7
